Where a chain is given by its changes, count along the chain named.
B1: RA304 (nucleic acid)
DNA: GCGCGAGAATACCAGCATCGTCTTGATGCCCTTGGAAGTCTCGCGTCCTGGATTCGCGGAAACGCGTACATCCAGCTGACGAGTCCCAAATAGGACGAAACGCGC
modifications: expressed or natural sequence
B2: RA305 (nucleic acid)
DNA: GCGCGTCCTGGATTCGCGGAAACGCGTACATCAGTGATACCAGCATCGTCTTGATGCCCTTGGCAGCACTCAGCTGACGAGTCCCAAATAGGACGAAACGCGC
modifications: expressed or natural sequence
B3: RA303 (nucleic acid)
DNA: GCGCCGGAATACCAGCATCGTCTTGATGCCCTTGGAAGTCCGGTCCTGGATTCGCGGAAACGCGTACATCCAGCTGACGAGTCCCAAATAGGACGAAACGCGC
modifications: expressed or natural sequence
B4: RA307 (nucleic acid)
DNA: GCGCGTCCTGGATTCGCGGAAACGCGTACATCCAGCTGACGAGTGAGAATACCAGCATCGTCTTGATGCCCTTGGAAGTCTCCCCAAATAGGACGAAACGCGC
modifications: expressed or natural sequence
B5: RA306 (nucleic acid)
DNA: GCGCGGGAATACCAGCATCGTCTTGATGCCCTTGGAAGTCCTCCTGGATTCGCGGAAACGCGTACATCCAGCTGACGAGTCCCAAATAGGACAAAACGCGC
modifications: expressed or natural sequence
B6: RA308 (nucleic acid)
DNA: GCGCGTCCTGGATTCGCGGAAACGCGTACATCCAGCAGTGATACCAGCATCGTCTTGATGCCCTTGGCAGCACTTGACGAGTCCCAAATAGGACGAAACGCGC
modifications: expressed or natural sequence
B7: RA302 (nucleic acid)
DNA: GCGCGTCCTGGATTCGCGGAAACGCGTACATCCAGCTGACGAGAATACCAGCATCGTCTTGATGCCCTTGGAAGTCTAGTCCCAAATAGGACGAAACGCGC
modifications: expressed or natural sequence
B8: RA294 (nucleic acid)
DNA: GCGCGTCCTGGATTCGCGGAAACGAGAATACCAGCATCGTCTTGATGCCCTTGGAAGTCTCGCGTACATCCAGCTGACGAGTCCCAAATAGGACGAAACGCGC
modifications: expressed or natural sequence
B9: RA301 (nucleic acid)
DNA: GCGAGTGATACCAGCATCGTCTTGATGCCCTTGGCAGCACTCGTCCTGGATTCGCGGAAACGCGTACATCCAGCTGACGAGTCCCAAATAGGACGAAACGCGC
modifications: expressed or natural sequence
B10: RA286 (nucleic acid)
DNA: GCGCGTCCTGGATTCGCGGAAAAGAATACCAGCATCGTCTTGATGCCCTTGGAAGTCTCGCGTACATCCAGCTGACGAGTCCCAAATAGGACGAAACGCGC
modifications: expressed or natural sequence
B11: RA295 (nucleic acid)
DNA: B10 DNA with A23G, T58C
modifications: expressed or natural sequence
B12: RA290 (nucleic acid)
DNA: GCGCGTCCTGGATTCGCGGAAACGCGTACATCCAGCTGACGACCGGAATACCAGCATCGTCTTGATGCCCTTGGAAGTCCGGGTCCCAAATAGGACGAAACGCGC
modifications: expressed or natural sequence
B13: RA029 (nucleic acid)
DNA: GCGCGTCCTGGATTCGCGGAAACGGGAATACCAGCATCGTCTTGATGCCCTTGGAAGTCCCGTACATCCAGCTGACGAGTCCCAAATAGGACGAAACGCGC
modifications: expressed or natural sequence
B14: RA288 (nucleic acid)
DNA: GCGCGTCCTGGATTCGCGGAAACGCGTACATCCAGCTGACGAGTCCCAAATAAGTGATACCAGCATCGTCTTGATGCCCTTGGCAGCACTGGACGAAACGCGC
modifications: expressed or natural sequence
B15: RA287 (nucleic acid)
DNA: GCGCGTCCTGGATTCGCGGAAACGCGTACATCCAGCTGACGAAGTGATACCAGCATCGTCTTGATGCCCTTGGCAGCACTGTCCCAAATAGGACGAAACGCGC
modifications: expressed or natural sequence
B16: RA028 (nucleic acid)
DNA: B15 DNA with A43C, T45G, G46A, C74A, C77T, A78C, T80G
modifications: expressed or natural sequence
B17: RA293 (nucleic acid)
DNA: GCGGGAATACCAGCATCGTCTTGATGCCCTTGGAAGTCCCGTCCTGGATTCGCGGAAACGCGTACATCCAGCTGACGAGTCCCAAATAGGACGAAACGCGC
modifications: expressed or natural sequence
B18: RA296 (nucleic acid)
DNA: GCGCGTCCTGGATTCGCGGAAACGCGTACATCCAGCTGACGAGTCCCAAATAGGAGAATACCAGCATCGTCTTGATGCCCTTGGAAGTCTACGAAACGCGC
modifications: expressed or natural sequence
B19: RA297 (nucleic acid)
DNA: B5 DNA with A93G
modifications: expressed or natural sequence
B20: RA284 (nucleic acid)
DNA: GCGCGTCCTGGATTCGCGGAAACGGAATACCAGCATCGTCTTGATGCCCTTGGAAGTCCGCGTACATCCAGCTGACGAGTCCCAAATAGGACGAAACGCGC
modifications: expressed or natural sequence
B21: RA300 (nucleic acid)
DNA: GCGCGTCCTGGCGAGAATACCAGCATCGTCTTGATGCCCTTGGAAGTCTCGATTCGCGGAAACGCGTACATCCAGCTGACGAGTCCCAAATAGGACGAAACGCGC
modifications: expressed or natural sequence
B22: RA292 (nucleic acid)
DNA: GCGCGTCGGAATACCAGCATCGTCTTGATGCCCTTGGAAGTCCGCCTGGATTCGCGGAAACGCGTACATCCAGCTGACGAGTCCCAAATAGGACGAAACGCGC
modifications: expressed or natural sequence
B23: RA299 (nucleic acid)
DNA: B22 DNA with C7A, G9T, A10G, A38C, T41C, C42A, G44T
modifications: expressed or natural sequence
B24: RA285 (nucleic acid)
DNA: GCGCGTCCTGGATTCGCGGAAACGCAGTGATACCAGCATCGTCTTGATGCCCTTGGCAGCACTGTACATCCAGCTGACGAGTCCCAAATAGGACGAAACGCGC
modifications: expressed or natural sequence
B25: RA291 (nucleic acid)
DNA: GCTGTCACCGGAATACCAGCATCGTCTTGATGCCCTTGGAAGTCCGGTCTGATGAGTCCCATAAGGACGAAACAGC
modifications: expressed or natural sequence
B26: RA289 (nucleic acid)
DNA: GCGCGTCCTGGATTCGCGGAAACGCGTACATCCAGGAATACCAGCATCGTCTTGATGCCCTTGGAAGTCCGCTGACGAGTCCCAAATAGGACGAAACGCGC
modifications: expressed or natural sequence
B27: RA298 (nucleic acid)
DNA: GCCGGAATACCAGCATCGTCTTGATGCCCTTGGAAGTCCGGCGTCCTGGATTCGCGGAAACGCGTACATCCAGCTGACGAGTCCCAAATAGGACGAAACGCGC
modifications: expressed or natural sequence

system: Renilla luciferase RNA; assay: Barcoded aptazyme variant library screen: un-cleaved Renilla luciferase RNA by barcode read counts, HEK293-T cells; type: cell-based; details: un-cleaved Renilla luciferase RNA by barcode read counts; with 1 mM theophylline (ON) over without theophylline (OFF); HEK293-T cells; triplicate
Source text: Based on the findings from Example 1, an aptazyme variant library was generated from the T3H48 ribozyme with one of seven variant theophylline aptamers inserted sequentially after each nucleotide of the DNA sequence encoding the T3H48 ribozyme sequence. […] The seven variant theophylline aptamers vary in their communication channels, which are the ribonucleotides of the aptamer that attach to the ribozyme sequence (see, Table 2).
The library was barcoded with unique sequences of nine nucleotides flanked by forward and reverse primer amplification sequences.
The aptazyme library was then PCR amplified and cloned into the psiCHECK™-2 dual luciferase vector in the 3′ UTR of the Renilla luciferase gene. […] The next day, the cells were isolated followed by DNA and RNA extraction using standard methods. The purified RNA was then converted to cDNA and the barcoded portion of the aptazyme library was PCR amplified. Similarly, the DNA was PCR amplified and all the samples were sequenced. All experimental conditions (with theophylline and without theophylline) were performed in triplicate. The read count for each barcode was determined with a custom build code and the data was normalized to identify the un-cleaved fractions of the Renilla luciferase RNA from cells that were cultured in the presence or absence of theophylline for each aptazyme, which was used to obtain the fold-change between ON- and OFF-states (FIG. 2).

Molecule	Fold change in RNA expression between the ON state and the OFF state
B1	1.0
B2	1.0
B3	1.0
B4	1.0
B5	1.0
B6	1.0
B7	1.0

same assay, conditions: un-cleaved Renilla luciferase RNA, HEK293-T cells cultured with 1 mM theophylline (ON) over without theophylline (OFF); barcode read counts, triplicate

Molecule	Fold change in RNA expression between the ON state and the OFF state [fold]
B8	1.0
B9	1.0
B10	1.0
B11	1.0
B12	1.0
B13	2.3
B14	1.0
B15	1.0
B16	2.3
B17	1.0
B18	1.0
B19	1.0
B20	1.0
B21	1.0
B22	1.0
B23	1.0
B24	1.0
B25	1.0
B26	1.0
B27	1.0
